Laboratory results published in patent US20240174741A1 (IMMUNOME, published 2024).

Columns and labels:
IL-1α = biological target: T1, IL-1α (human, UniProt P01583 1-271, limits assumed); assay: CDI HuProt native protein microarray
T1 sequence (looked up): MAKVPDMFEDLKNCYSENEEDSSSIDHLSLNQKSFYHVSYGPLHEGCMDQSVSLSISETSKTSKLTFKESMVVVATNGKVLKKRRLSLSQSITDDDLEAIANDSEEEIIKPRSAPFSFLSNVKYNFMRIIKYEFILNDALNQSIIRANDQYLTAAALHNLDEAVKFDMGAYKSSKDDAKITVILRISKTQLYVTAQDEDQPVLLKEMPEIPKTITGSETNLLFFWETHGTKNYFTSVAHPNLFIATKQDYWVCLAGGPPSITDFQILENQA
Experimental: (§1) To confirm specificity to IL-38, several lead candidate antibodies (CD1-M3, CD1-M8, NZB-M8) were analyzed in a High-Spec Cross-reactivity Assay using native HuProt arrays (CDI Laboratories). […] of antibody was incubated overnight in a cold room, washed, and probed with anti-human secondary antibodies. Fluorescence intensity (F635) as an indicator of binding was measured for each spot. CDI software quantified the specificity of the antibody to each spot based on a Z-score. Z-score is defined as [F635−(Average F635 on array)]/(Standard deviation of F635 on array). S-score is defined as the difference between the Z-score of a given protein and the Z-score of the next highest protein.

IL-1β = IL-1β (human, UniProt P01584 1-269, limits assumed); assay: CDI HuProt native protein microarray
Experimental: as §1

IL-1Ra = IL-1Ra (human, UniProt P18510 26-177, limits assumed); assay: CDI HuProt native protein microarray
Experimental: as §1

IL-18 = biological target: T2, IL-18 (human, UniProt Q14116 1-193, limits assumed); assay: CDI HuProt native protein microarray
T2 sequence (looked up): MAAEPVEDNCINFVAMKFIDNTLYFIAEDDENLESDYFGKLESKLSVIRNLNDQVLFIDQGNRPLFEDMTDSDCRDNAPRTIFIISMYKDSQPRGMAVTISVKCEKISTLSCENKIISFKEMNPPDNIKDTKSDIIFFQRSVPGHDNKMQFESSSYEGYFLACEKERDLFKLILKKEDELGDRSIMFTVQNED
Experimental: as §1

IL-36Ra = biological target: T3, IL-36Ra (human, UniProt Q9UBH0 1-155, limits assumed); assay: CDI HuProt native protein microarray
T3 sequence (looked up): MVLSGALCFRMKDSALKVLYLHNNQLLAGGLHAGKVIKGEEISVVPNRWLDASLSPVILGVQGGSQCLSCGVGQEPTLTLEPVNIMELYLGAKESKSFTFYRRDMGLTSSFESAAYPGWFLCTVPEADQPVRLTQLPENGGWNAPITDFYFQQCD
Experimental: as §1

IL-37 = biological target: T4, IL-37 (human, UniProt Q9NZH6 1-218, limits assumed); assay: CDI HuProt native protein microarray
T4 sequence (looked up): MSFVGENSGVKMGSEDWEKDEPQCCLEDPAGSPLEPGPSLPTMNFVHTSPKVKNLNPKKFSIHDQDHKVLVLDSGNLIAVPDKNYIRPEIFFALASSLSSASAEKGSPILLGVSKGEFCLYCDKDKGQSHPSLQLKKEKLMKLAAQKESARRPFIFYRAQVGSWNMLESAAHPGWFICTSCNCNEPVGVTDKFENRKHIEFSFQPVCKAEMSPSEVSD
Experimental: as §1

IL-36b [1] = biological target: T5, IL-36b (human, UniProt Q9NZH7 1-164, limits assumed); assay: CDI HuProt native protein microarray
T5 sequence (looked up): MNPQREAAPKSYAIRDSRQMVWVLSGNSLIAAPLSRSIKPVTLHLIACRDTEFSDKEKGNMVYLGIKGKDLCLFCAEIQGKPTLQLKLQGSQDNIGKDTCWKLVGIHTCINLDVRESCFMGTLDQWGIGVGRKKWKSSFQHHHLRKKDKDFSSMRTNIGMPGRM
Experimental: as §1

IL-36g = biological target: T6, IL-36g (human, UniProt Q9NZH8 1-169, limits assumed); assay: CDI HuProt native protein microarray
T6 sequence (looked up): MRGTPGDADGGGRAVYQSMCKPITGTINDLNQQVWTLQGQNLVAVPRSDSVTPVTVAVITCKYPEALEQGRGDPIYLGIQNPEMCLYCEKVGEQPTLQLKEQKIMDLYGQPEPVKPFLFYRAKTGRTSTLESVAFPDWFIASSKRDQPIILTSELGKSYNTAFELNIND
Experimental: as §1

IL-33 [2] = biological target: T7, IL-33 (human, UniProt O95760 1-270, limits assumed); assay: CDI HuProt native protein microarray
T7 sequence (looked up): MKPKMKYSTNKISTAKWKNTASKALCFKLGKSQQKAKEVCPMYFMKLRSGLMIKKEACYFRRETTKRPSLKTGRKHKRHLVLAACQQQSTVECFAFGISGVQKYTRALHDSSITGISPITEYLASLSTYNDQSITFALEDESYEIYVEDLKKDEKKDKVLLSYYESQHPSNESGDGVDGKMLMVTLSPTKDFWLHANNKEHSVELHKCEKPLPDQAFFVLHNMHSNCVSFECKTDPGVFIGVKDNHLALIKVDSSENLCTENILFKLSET
Experimental: as §1

IL-36b [3] = biological target: T5, IL-36b; assay: CDI HuProt native protein microarray, IL-1 family members
Experimental: as §1

IL-33 [4] = biological target: T7, IL-33; assay: as above
Experimental: as §1

[5] = biological target: T8, human interleukin-38 (IL-38) (human, UniProt Q8WWZ1 1-152); assay: BLI (Octet QKe), antibody on anti-mouse Fc biosensors, soluble IL-38, 1:1 model
T8 construct: The Adipogen protein is called full length; also called IL1F10/IL38; IL1F10
T8 sequence (looked up): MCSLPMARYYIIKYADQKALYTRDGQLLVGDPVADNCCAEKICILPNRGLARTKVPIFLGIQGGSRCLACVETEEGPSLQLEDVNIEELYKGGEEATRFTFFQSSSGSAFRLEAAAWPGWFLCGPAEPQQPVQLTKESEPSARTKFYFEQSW
Experimental: Antibody was loaded to AMC probes, blocked in the kinetics buffer for 1 min (baseline) and dipped into an appropriate IL-38 solution. IL-38 association to antibodies of interest was measured for 180 seconds at 28° C. Biosensors were subsequently dipped into kinetics buffer-containing wells and the protein dissociation was measured for 600 s. KD, Kon and Kdis values were identified using the 1:1 built-in model of the ForteBio's Data Analysis 9 software.

IL-1Ra, sequence (P18510 26-177 limits assumed): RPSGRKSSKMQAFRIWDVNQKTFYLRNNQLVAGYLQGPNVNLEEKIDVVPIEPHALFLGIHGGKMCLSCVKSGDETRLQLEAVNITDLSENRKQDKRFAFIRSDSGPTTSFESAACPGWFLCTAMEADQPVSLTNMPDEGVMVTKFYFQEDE

B1: CD1-M3 (antibody, V domains shown)
VH: EVQLQQSGPELVKPGASVKIPCKASGYTFTDYNMDWVKQSHGKSLEWIGDINPNNGGTIYNQKFKGKATLTVDKSSSTAYMELRSLTSEDTAVYYCSRPYYGYFAYWGQGTLVTVSA
VL: DVVMTQSPLSLPVSLGDQASISCRSSQSLVHSHENTFLHWYLQKPGQSPKLLIYRVSNRFSGVPDRFSGSGSGTDFTLKISRVEAEDLGVYFCSQSTHVPLTFGAGTKLELK
notes: Mouse monoclonal from a hybridoma of a CD-1 mouse immunized with full length recombinant IL-38
-0.016: Z-score (IL-36b [3])
no binding: binding result (IL-1α) | binding result (IL-1β) | binding result (IL-1Ra) | binding result (IL-18) | binding result (IL-36Ra) | binding result (IL-37) | binding result (IL-36b [1]) | binding result (IL-36g) | binding result (IL-33 [2])
0.721 nM: Kd [5]
-0.02: Z-score (IL-33 [4])
